US8318206

Legend:
[1] = tested on: fluorenyl-9-methoxycarbonyl (Fmoc)-SSFYSGGGC-CONH2
[2] = tested on: T1, Fmoc-Gly-Phe-Cys-NH2 (peptide 1)
T1 sequence: GFC

## Prostate Specific Antigen (PSA)
[1]
  dispersion of the aggregate (percentage change in intensity against time): Discrimination of PSA concentration is seen after 5 min

## trypsin
[2]
  disassembly of nanoparticle aggregate: 8.5 nm gold particles functionalised with Fmoc-Gly-Phe-Cys-NH2 did not disassemble upon introduction of trypsin
